We go through 38 molecules from patent US20080044360A1 (COLLAGEN MEDICAL, published 2008).

Bridge positions count the residues as written; N and C are the ends. Ends that are not written are not given here.

The target in the test is T1, human collagen type I, acid soluble, extracted from placenta (Sigma C7774) (human, UniProt P02452 162-1218; P08123 80-1119).
T1 construct: tissue extract, gelled and dried in wells; also called dried human collagen; h-Collagen
T1 sequence (P02452 162-1218 limits assumed, chain 1 of 2): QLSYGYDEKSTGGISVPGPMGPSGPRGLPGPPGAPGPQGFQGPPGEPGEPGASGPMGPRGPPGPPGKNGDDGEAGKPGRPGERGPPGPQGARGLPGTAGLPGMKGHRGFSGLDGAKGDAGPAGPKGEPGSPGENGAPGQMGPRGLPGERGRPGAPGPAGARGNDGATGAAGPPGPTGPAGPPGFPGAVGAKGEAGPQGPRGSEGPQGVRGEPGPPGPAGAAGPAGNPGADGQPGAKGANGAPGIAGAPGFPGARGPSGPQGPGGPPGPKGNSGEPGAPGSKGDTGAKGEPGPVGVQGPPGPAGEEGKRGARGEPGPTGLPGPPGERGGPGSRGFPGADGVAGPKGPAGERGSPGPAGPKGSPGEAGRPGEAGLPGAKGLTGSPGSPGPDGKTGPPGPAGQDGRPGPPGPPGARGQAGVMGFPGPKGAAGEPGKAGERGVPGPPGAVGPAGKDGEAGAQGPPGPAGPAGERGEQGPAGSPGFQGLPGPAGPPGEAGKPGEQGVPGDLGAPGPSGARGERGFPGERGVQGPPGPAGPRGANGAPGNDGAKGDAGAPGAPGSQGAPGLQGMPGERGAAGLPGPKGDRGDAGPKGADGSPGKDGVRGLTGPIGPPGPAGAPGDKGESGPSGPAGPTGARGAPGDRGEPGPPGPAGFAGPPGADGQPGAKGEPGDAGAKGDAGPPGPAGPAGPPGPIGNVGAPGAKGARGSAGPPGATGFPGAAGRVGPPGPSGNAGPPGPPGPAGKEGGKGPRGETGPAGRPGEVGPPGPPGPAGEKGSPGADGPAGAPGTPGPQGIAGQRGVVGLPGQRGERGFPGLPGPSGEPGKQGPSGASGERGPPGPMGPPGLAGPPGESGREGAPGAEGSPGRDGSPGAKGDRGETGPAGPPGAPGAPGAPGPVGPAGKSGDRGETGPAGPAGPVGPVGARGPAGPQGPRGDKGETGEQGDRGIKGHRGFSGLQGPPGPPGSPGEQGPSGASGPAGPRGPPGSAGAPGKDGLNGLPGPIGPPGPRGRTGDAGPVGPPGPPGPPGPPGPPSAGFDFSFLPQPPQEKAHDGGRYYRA
T1 sequence (P08123 80-1119 limits assumed, chain 2 of 2): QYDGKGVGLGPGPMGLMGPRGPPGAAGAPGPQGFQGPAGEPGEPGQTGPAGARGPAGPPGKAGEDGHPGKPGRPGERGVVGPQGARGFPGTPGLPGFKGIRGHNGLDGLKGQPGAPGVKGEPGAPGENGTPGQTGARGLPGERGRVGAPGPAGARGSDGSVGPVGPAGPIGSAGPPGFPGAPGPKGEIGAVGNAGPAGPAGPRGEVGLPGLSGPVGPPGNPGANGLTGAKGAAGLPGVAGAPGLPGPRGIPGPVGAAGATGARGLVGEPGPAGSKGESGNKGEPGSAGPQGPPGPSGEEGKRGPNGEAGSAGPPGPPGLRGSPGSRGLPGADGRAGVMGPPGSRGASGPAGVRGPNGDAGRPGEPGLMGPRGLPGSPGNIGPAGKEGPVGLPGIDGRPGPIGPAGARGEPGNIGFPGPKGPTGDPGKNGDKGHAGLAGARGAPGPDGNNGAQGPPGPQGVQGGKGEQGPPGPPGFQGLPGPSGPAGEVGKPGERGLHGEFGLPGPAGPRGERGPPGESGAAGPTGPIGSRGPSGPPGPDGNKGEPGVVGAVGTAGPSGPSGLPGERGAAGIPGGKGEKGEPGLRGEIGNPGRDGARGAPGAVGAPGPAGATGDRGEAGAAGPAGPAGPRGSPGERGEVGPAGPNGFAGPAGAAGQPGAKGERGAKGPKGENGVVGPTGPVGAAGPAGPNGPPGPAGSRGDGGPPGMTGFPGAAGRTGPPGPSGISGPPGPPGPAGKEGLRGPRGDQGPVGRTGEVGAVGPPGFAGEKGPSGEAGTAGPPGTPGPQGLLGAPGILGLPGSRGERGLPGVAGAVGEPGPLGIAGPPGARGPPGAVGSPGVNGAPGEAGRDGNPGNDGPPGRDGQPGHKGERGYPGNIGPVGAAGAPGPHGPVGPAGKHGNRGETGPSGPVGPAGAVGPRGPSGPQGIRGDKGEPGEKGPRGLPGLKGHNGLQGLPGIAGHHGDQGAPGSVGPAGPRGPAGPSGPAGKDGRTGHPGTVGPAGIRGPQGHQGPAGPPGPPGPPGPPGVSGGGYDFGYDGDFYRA
Kind of test: dried collagen assay. How it is done: An additional 90 μL is reserved in a HPLC glass vial as a measure of the total concentration.
With FWRCALLDGHWQCTDH (disulfide 4-13 (inferred), cyclic, disulfide) [SEQ ID NO 70], the “% bound” value came out at 3%. Then NWVCSGDHADWSCALI (disulfide 4-13 (inferred), cyclic, disulfide) [SEQ ID NO 32], with 12%; and AWFCSQKNRLWSCGET (disulfide 4-13 (inferred), cyclic, disulfide) [SEQ ID NO 49], with 19%; and VWACRGGTTNWHCDL (disulfide 4-13 (inferred), cyclic, disulfide) [SEQ ID NO 41], with 1%.

With MWDCTGNSAEWRCEMQ (disulfide 4-13 (inferred), cyclic, disulfide) [SEQ ID NO 34], the “% bound” value amounted to 11%.

Take PWQCYSDKTSWVCNLY (disulfide 4-13 (inferred), cyclic, disulfide) [SEQ ID NO 43]: the “% bound” value was 30%.

Take GWFCKLVDGNWECSTK (disulfide 4-13 (inferred), cyclic, disulfide) [SEQ ID NO 53]: the “% bound” value amounted to 12%. Then GWVCGGDHTTWECHLQ (disulfide 4-13 (inferred), cyclic, disulfide) [SEQ ID NO 31], with 15%; and TWICSHNDKGWTCGDQ (disulfide 4-13 (inferred), cyclic, disulfide) [SEQ ID NO 64], with 8%.

With TWRCDQFKGKWVCRGG (disulfide 4-13 (inferred), cyclic, disulfide) [SEQ ID NO 42], the “% bound” value turned out to be 40%. Then YWVCGGDHQSWHCSHP (disulfide 4-13 (inferred), cyclic, disulfide) [SEQ ID NO 35], with 8%. For the molecule NWYCSQALDNWSCKLR (disulfide 4-13 (inferred), cyclic, disulfide) [SEQ ID NO 63], the “% bound” value stood at 8%.

For the molecule KWSCYMVDHQWYCREF (disulfide 4-13 (inferred), cyclic, disulfide) [SEQ ID NO 61], the “% bound” value amounted to 9%. SWICTGDNIDWNCRFA (disulfide 4-13 (inferred), cyclic, disulfide) [SEQ ID NO 28]: the “% bound” value amounted to 20%. Turning to GWNCYEYDSQWICDHL (disulfide 4-13 (inferred), cyclic, disulfide) [SEQ ID NO 44], the “% bound” value came out at 28%. SWNCHWRNQGWLCSGG (disulfide 4-13 (inferred), cyclic, disulfide) [SEQ ID NO 55]: the “% bound” value stood at 12%. For EWQCTQYANQWNCKYN (disulfide 4-13 (inferred), cyclic, disulfide) [SEQ ID NO 45], the “% bound” value came out at 25%. Next, KWFCELMQDQWQCGSK (disulfide 4-13 (inferred), cyclic, disulfide) [SEQ ID NO 50]: 18%; KWFCELMHDQWQCGSK (disulfide 4-13 (inferred), cyclic, disulfide) [SEQ ID NO 51]: 18%; PWTCRMTENTWVCDLN (disulfide 4-13 (inferred), cyclic, disulfide) [SEQ ID NO 47]: 22%. Consider SWHCALMGSRWVCGQN (disulfide 4-13 (inferred), cyclic, disulfide) [SEQ ID NO 71], for which the “% bound” value was found to be 3%. For the molecule SWHCFGDNENWMCNLR (disulfide 4-13 (inferred), cyclic, disulfide) [SEQ ID NO 27], the “% bound” value is 24%. As for SWNCHMIRNEWRCTGH (disulfide 4-13 (inferred), cyclic, disulfide) [SEQ ID NO 56], the “% bound” value was determined as 11%. Then GWVCMMRETDWNCSI (disulfide 4-13 (inferred), cyclic, disulfide) [SEQ ID NO 58], with 10%; and HWSCYLGDNGWNCHDR (disulfide 4-13 (inferred), cyclic, disulfide) [SEQ ID NO 62], with 9%; and DWICHGDFDTWKCDLQ (disulfide 4-13 (inferred), cyclic, disulfide) [SEQ ID NO 29], with 16%. On to EWHCVLNDFRWTCGGD (disulfide 4-13 (inferred), cyclic, disulfide) [SEQ ID NO 60], for which the “% bound” value was 10%. Take HWQCGEKMSFWSCELV (disulfide 4-13 (inferred), cyclic, disulfide) [SEQ ID NO 69]: the “% bound” value is 3%. Then MWNCTMTKSGWRCFEK (disulfide 4-13 (inferred), cyclic, disulfide) [SEQ ID NO 54], with 12%. Then GWDCQGTDNIWECVRK (disulfide 4-13 (inferred), cyclic, disulfide) [SEQ ID NO 30], with 16%; and HWQCRLTDYGWNCDER (disulfide 4-13 (inferred), cyclic, disulfide) [SEQ ID NO 59], with 10%; and AWTCVGGEKTWGCVWN (disulfide 4-13 (inferred), cyclic, disulfide) [SEQ ID NO 33], with 12%. Next, RWTCDLQRGDWQCSTI (disulfide 4-13 (inferred), cyclic, disulfide) [SEQ ID NO 57]: 11%; WRCDGDAHDWHCDWF (disulfide 3-12 (inferred), cyclic, disulfide) [SEQ ID NO 26]: 25%. Regarding EWRCRGDSSSWLCDYT (disulfide 4-13 (inferred), cyclic, disulfide) [SEQ ID NO 40], the “% bound” value is 3%. Then GWVCLQKGPKWVCDWD (disulfide 4-13 (inferred), cyclic, disulfide) [SEQ ID NO 46], with 23%; and AWSCWIVEGRWNCSDI (disulfide 4-13 (inferred), cyclic, disulfide) [SEQ ID NO 48], with 22%; and RWSCWLDENGWKCDGT (disulfide 4-13 (inferred), cyclic, disulfide) [SEQ ID NO 52], with 15%.
